Results on 21 sequences are retold here after the DeepSol protein solubility set.

This data set in a line: soluble on expression in E. coli; label from the status in PepcDB or PDB records.
With “MSLEKNALYFVPLGGAGEIGMNLNLYAHQGKWLMVDLGVTFGNETTPGVDIILPDPSFIEERKGDLVGLVLTHAHEDHVGAVAYLWPYLECPVYATPFTAEFLRHKLREEGIEPDVKLIEIPLGGRFTVGPFDIEMITTTHSIPEPNHLAIRTTAGTVLHTADWKFDPEPLVGPPADEAALRRLGDEGVLAMVGDSTNIFTEGHSASEGDVRRSMIDLFARFQGRIAVGCFASNIARMETIALAAKANGREVALVGRSLWRMMETARTCGYLKGCPAFLGDEEAAKLPRDKVVYICTGSQGEPRAALKRIASGSHPYVSLSAGDVVIFSSRVIPGNERSILQLQNQLVEMGVKLITSRDAMVHVSGHPGAEEVRSLYGMVRPSIALPVHGEFLHLDHHADVARDLGVAHVVRITNGAVVRLDGAEPTVVGKVPFGRLALDGDRLLQIDCEIIRDRKRMGYNGSVAVSLAIDDKGKLLGTPKISARGLLDPEDDADEVADLTNRVRGAVNAVRPADRKDDAAVAEAVRLAVRRVFRQGQNRRPVTDIHVLRVEGHHHHHH”, the “soluble on expression in E. coli” value is “soluble”.

For the sequence “MSWIERIKSNITPTRKASIPEGVWTKCDSCGQVLYRAELERNLEVCPKCDHHMRMTARNRLHSLLDEGSLVELGSELEPKDVLKFRDSKKYKDRLASAQKETGEKDALVVMKGTLYGMPVVAAAFEFAFMGGSMGSVVGARFVRAVEQALEDNCPLICFSASGGARMQEALMSLMQMAKTSAALAKMQERGLPYISVLTDPTMGGVSASFAMLGDLNIAEPKALIGFAGPRVIEQTVREKLPPGFQRSEFLIEKGAIDMIVRRPEMRLKLASILAKLMNLPAPNPEAPREGVVVPPVPDQEPEALEHHHHHH”, the “soluble on expression in E. coli” value was “not soluble”.

Turning to “MTQSRRTLTERRADELRLAIAEVAFDMFVADGNTSATVERISQAVGIAPRTFYRHFEVKEDVVRPIFTKSSDVIVDALASTGEDVALLEGLVAAFLSQMDGTALTPEARTFLGLMLTTPAYKIRWLDVDPPLRQAVADLLDRRLGLSADPYIHLLAADLIVHAARDAFQHWVSSQEREPTEALLRRSFTLILKGLEHVIPRT”, the “soluble on expression in E. coli” value is listed as “not soluble”.

In the case of “MGSDKIHHHHHHMMRVEHLAYQFSRNGQPFFKDVSFQLKSPGVNFLIGQNGAGKTTLADIITGLRPAQGELDLPKAAIYLNQQLPLLSSIRVRDVAQLVLGIEHGRLRLTTEQLQQLIDTQAYQFLAPLWDQHYGQLSGGQRKLVQLLLFLQVDRELIVLDEPTAAVDRENVQLLFQVMQAHPERTYLMITHDVRDLHAFTDYQVLWLNDRQVTTLSKRTFEAASAQADFVALFKTQ”, the “soluble on expression in E. coli” value was “not soluble”.

In the case of “MLEEVERWLDARSWPAADRPVQHLLSAKHATGQSVSVVLPALDEEATVGDIVSVIRRELVLGVPLVDEIVVVDSGSSDRTSEVAAAAGARVVHRDAILPRIPAVPGKGEVLWRSLLVTGGDIVCFVDADLREFSADFVSGIVGPLLTDPDVHLVKAMYDRPLAGAAGQGGRVTELMARPLLNMHWPQLAGFVQPLGGEYAARRSLLERLPFPVGYGVELGMLVDALHLVGLDALAQVDVGVRVHRHQDGRALGRMAAAIYRTAQLRLARGHLVRPALTQFERGVDGFEPRTYAVDTEERPPMTEIAEYAARKVALEHHHHHH”, the “soluble on expression in E. coli” value is recorded as “soluble”.

“IQQANEEAVTRIIQSKPILVGFDKAINVMPDMTETTILHAGPPITYENMCGPMKGAVQGALVFEGLAKDLADADRVARSGAITFSPCHEHDAVGSMAGVTSPNMYVHIIKNETYGNTAFTNLSEQLAKVLRFGANDQSVVDRLIWMRDVLGPLLHDAMTFCPEGIDLRLMLSQALHMGDECHNRNVAGSTLLVQALTPYMVQTDFSREQLKEVFEFLGSSDYFSGPTWMGAAKCALDAGHNVENSTIVTTMCRNGVEFGIRVSGIGGNHWFTGPAQRVIGPMFAGYTQEDAGLDMGDSAITETYGVGGFAMAAAPAIVPLVGGTVAEALNYSKEMLEITTKENPNVTIPVLDFMGIPTGIDVLKVLETGMLPVINTAIAHKEPGIGMIGAGLTNPPANVFNEALKALVATIN”: the “soluble on expression in E. coli” value is given as “not soluble”.

Take “MAHHHHHHMESISRTYENIKNDKNNLSNAENENNGNFKAPPNGTVCCPEDLKMYSTIQLNQEIEISKNPFPLHEINKKNDIPLCAQEFSDLTDPLYIKKICLEKVPEWNHFTEDNLRVKQILSGLTNQLFEVGLKEETANNYNSIRTRVLFRIYGKHVDELYNTISEFEVYKTMSKYKIAPQLLNTFNGGRIEEWLYGDPLRIDDLKNPTILIGIANVLGKFHTLSRKRHLPEHWDRTPCIFKMMEKWKNQLFKYKNIEKYNCDIHKYIKESDKFIKFMKVYSKSDNLANTIVFCHNDLQENNIINTNKCLRLIDFEYSGFNFLATDIANFFIETSIDYSVSSYPFFEIDKKKYISYENRKLFITAYLSNYLDKSLVVPTPKLIDEILEAVEVQALGAHLLWGFWSIIRGYQTKSYNEFDFFLYAEQRLKMYDDQKEYLISNNIIKGYD”: the “soluble on expression in E. coli” value is recorded as “soluble”.

In the case of “MSVEASRTCFLIDSLLNKKPKEELETEEEDEEEDEEEELSSSEVTSENDMETESASSSASSVGQPKPDFSAFHKIFSNLDFAKLAAVKRNGHHQPMLFRPECFFPLELSKHLHLVQQTFQMNVLQNLGHTLPLPFVPMLKNVAPAQKRLNNKRASYVDHSQKGNLKKYRCDVCDKTFSRSNTLITHKRIHTGEKPFKCEHCGRAFRQPGNLTRHRLTHTTVKPYVCGLCDKAFNRASNLHTHMRTHTNV”, the “soluble on expression in E. coli” value is given as “not soluble”.

For “AHHHHHHGSGRFVVWPSELDSRLSRKYGRIVPRSIAVESPRVEEIVRAAEELKFKVIRVEEDKLNPRLSGIDEELRTFGMIVLESPYGKSKSLKLIAQKIREFRRRSA”, the “soluble on expression in E. coli” value is “not soluble”.

Take “LEYLKNNCKVIIVDMHAEATSEKCALAWYLDGRVSCVLGTHTHVQTADERILPFGTAFISDVGMTGPYDGIIGVNREIVIQKFLTHMPVRFEVATGRVQFNAVYLEIDEKTGKTTGIERIYEILEV”: the “soluble on expression in E. coli” value was “not soluble”.

With “MGHHHHHHSHMPDNHKDPPDFNNLEMKLEERIELSREDQDIQSTSSSYPHCEALDHIVSMESTYDFHRQMAHKDLQKHRQEYEKASEKILELRKKLTDWNMDPKKRKWIEDDLDSLVRKQESALSRIRLAEKCTKRDLRNDPPPAYQPDDPLKDLRKNFEKKEKPTWNDVEKKKNGVFEFH”, the “soluble on expression in E. coli” value is listed as “not soluble”.

On to “MIHETAQIHPTSVVEEGAIIGANVKIGPFCFVDSKVEIGEGTELLSHVVVKGPTKIGRFNRIFQFASIGEACQDLKYAGEDTQLIIGDRNTIRESVTMHRGTVQDKGITIVGSDNLFMINAHVAHDCVIGDRCIFANNATLAGHVKVGNQAIVGGMSAIHQFCHIGDHCMLGGGSIVVQDVPPYVMAQGNHCAPFGINVEGLKRRGFDKAEIHAIRRAYKSLYRNGLTLEAAKAEIAQEAEQYPSVKLFLDFLEKSERGIIR”, for which the “soluble on expression in E. coli” value is “not soluble”.

As to “MNWLDICSLDEINPLGSRVVAGPKGDIAIFRAADDQVFALDDRCPHKGGPLSQGLIYGKRVACPLHNWQIELESGEAVAPDQGCAHRHPVRVENGRVLLGLDSVALCA”, the “soluble on expression in E. coli” value was “not soluble”.

For the sequence “MNIYVLMKRTFDTEEKIVIKNGAIYDGEAEFIINPYDEYAIEEAIQVRDAQGGEVTVVTVGGEDSEKELRTALAMGCDKAVLINIEDDVENGDQFTTAKVLAEYLKDKDADLILGGNVAIDGASGQVGPRVAEALNIPYVTTITKLEIDGTNVKIERDVEGDTEVVETSLPVLVTAQQGLNEPRYPSLPGIMKAKKKPLEELELDDLDLEEDDVEAKTKTIEIYLPPKKDAGKVLQGELQDQVKELVSLLHTEAKVI”, the “soluble on expression in E. coli” value is recorded as “not soluble”.

As to “GPGSMTGLTVPRGEYTNVVVHHRMVGVSAFDDQFNCDWNFELYGVAERIKEHHGGAISDGFRMWLNRVEPGFIVRNFKQSLREAFGLTPPSALLMTSEEDIPHHEVTVYYDFEPAALRFPLLNIRLGE”, the “soluble on expression in E. coli” value is on record as “soluble”.

On to “MTVTFYSYPKCGTCQKAKKWFEANDVAYEMIHIVENPPSKEDLRNLHEKSELPLKKFFNTSGMRYRELGLKDKLKDASEDEMYELLASDGMLIKRPIVTDGTNVTLGFNEEQFESVWKKYQ”, for which the “soluble on expression in E. coli” value is “not soluble”.

For “MPKGGASCLTPVYAGIRDDLNSFLRAYLQFESVRFFDYKVMFENRGMVGLFTGRHNSAEIIEFNECLLVHCLPYMEECVCPGTPRSLKERLFGLYSLYTFYYIQQEKHVVKVRMDPDSSRNFRRFAQFLLTEKIYDAYALCQKLLEDKAIKQVAFISIHDPSHFKRFYTDDKVSGVSIRTNLNDPLVNVKALVEQFDALGVIHKEYSRLKMKLGITSWMKLKDPIEELKKIIKTSLQAVESSSGVDEIVHTDHSAQQLASRGMQRSSIKDQAHSAALKFSRTRRHRSVKPVIVPAETFEYAPDPKKKKEAQETMPVSGRNGRKRGRPKSVPKSKVSNPARILYEKLAEDMISEHLSTDLTEQEAFTDRPQSSLEPQKNELFNWDAAPQDAQISNQTTEPSCGEDIFIEDFGEFKSQDDVMFTAEDFNDSLIPPLADSDSDLEIDA”, the “soluble on expression in E. coli” value is reported as “not soluble”.

Consider “MSLNKFVDREGSVVAVYAAKSKAGCSAPDVEKVNQDAFCLVEKYGDSPNLSWFSVMDGHGLNGHLVSDIVRQILHKNVQECPEFNRDIKQALQKGFFRTNCELFQPGIDITMSGTTCVACVFHGSTLYSANVGDSRAIMGRSNGKGGWTSLSLTHDHKPDRPDEEKRILAADGRVGALKGPNGEALGPARVWRKDCDAPGLAMSRSLGDSLAASVGVIDDFIVIASDGLWEFMTNEEVTQIVSRFLDSRDPLGACDGLIEEANRRWRLEDDVIDDTTVVVIFLDVGRKEGHHHHHH”, for which the “soluble on expression in E. coli” value is listed as “not soluble”.

As to “VTSDPGTAAPVKRTAEQSRSLIVDAAGRAFATRPYREITLKDIAEDAGVSAPLIIKYFGSKEQLFDALVDFRAAAEIVFSGPLDGLGERMVSMFARPLEPYKPLSLNILFMSGPSEESSRKLRANYSAQMIDALAERLPGRDARLRAELVMSMLTGLAVMRRKMMQEHATGTPEEVVAHYAPLVQELLDG”, the “soluble on expression in E. coli” value was “soluble”.

As to “MVARRKGERVVRKNEVENVQQRACANRRERQRTKELNDAFTLLRKLIPSMPSDKMSKIHTLRIATDYISFLDEMQKNGCKLYGHSIFDEKRGYNLQSAFNMWRGNNGYTPIAGPSQLPPLQSAHIPPPAPSSIPPHCLMPQPWYQTCPPPKQEFHELCPISTPNPNSNPNQLTPIHWQ”, the “soluble on expression in E. coli” value is listed as “not soluble”.

Turning to “MAHHHHHHMSTSVVARHPQMRPSRKRQAQRQHPRQQRSVAHKAQRAPSSGHGASSVEHLPRDAVVHVALRQQHRPAGQAHSRIKRHRVVLRRQKVVPHKRHGGARHTHSPTHRHRVLAQQEVAVNKRHHGAAAGRNAALHRHAQPQRRLHQQSVHVQRTARRQRHAANHQHANSVAEHSRHLRSRNCQHAPRQIHVVHHEARRRVAKVVGAAVRNTRLCYQHRVHHSDARARRKPVRHQHTAARTRLKTADQHINALASRRVGPPPNNVQARSAQKRAVRQRHVAHAP”, the “soluble on expression in E. coli” value is given as “not soluble”.
